Reference: patent US20030229005A1 (BIOZYME, published 2003)
*1 amine or outer side, *2 acyl side, *3 side chain or, on linkers, in order; H or OH if unused. [ ]: non-standard residue; d: D form. The star is where a group is joined. Dnp = O=[N+]([O-])c1ccc(*)c([N+](=O)[O-])c1; C(Me) = CSC[C@H](N[*:1])C(=O)[*:2]

B1: Dnp-…(Me)YLG-NH2 (peptide)
peptide: Dnp-DEGPMGLK[C(Me)]YLG-NH2
SMILES: CSCC[C@H](NC(=O)[C@@H]1CCCN1C(=O)CNC(=O)[C@H](CCC(=O)O)NC(=O)[C@H](CC(=O)O)Nc1ccc([N+](=O)[O-])cc1[N+](=O)[O-])C(=O)NCC(=O)N[C@@H](CC(C)C)C(=O)N[C@@H](CCCCN)C(=O)N[C@@H](CSC)C(=O)N[C@@H](Cc1ccc(O)cc1)C(=O)N[C@@H](CC(C)C)C(=O)NCC(N)=O
B2: Dnp-GPVNLHGC(Me)-NH2 (peptide)
peptide: Dnp-GPVNLHG[C(Me)]-NH2
SMILES: CSC[C@H](NC(=O)CNC(=O)[C@H](Cc1c[nH]cn1)NC(=O)[C@H](CC(C)C)NC(=O)[C@H](CC(N)=O)NC(=O)[C@@H](NC(=O)[C@@H]1CCCN1C(=O)CNc1ccc([N+](=O)[O-])cc1[N+](=O)[O-])C(C)C)C(N)=O
B3: Dnp-GPFGLKG-NH2 (peptide)
peptide: Dnp-GPFGLKG-NH2
SMILES: CC(C)C[C@H](NC(=O)CNC(=O)[C@H](Cc1ccccc1)NC(=O)[C@@H]1CCCN1C(=O)CNc1ccc([N+](=O)[O-])cc1[N+](=O)[O-])C(=O)N[C@@H](CCCCN)C(=O)NCC(N)=O
B4: Dnp-GPHPMRG-NH2 (peptide)
peptide: Dnp-GPHPMRG-NH2
SMILES: CSCC[C@H](NC(=O)[C@@H]1CCCN1C(=O)[C@H](Cc1c[nH]cn1)NC(=O)[C@@H]1CCCN1C(=O)CNc1ccc([N+](=O)[O-])cc1[N+](=O)[O-])C(=O)N[C@@H](CCCNC(=N)N)C(=O)NCC(N)=O
B5: Dnp-PSGIHL-NH2 (peptide)
peptide: Dnp-PSGIHL-NH2
SMILES: CC[C@H](C)[C@H](NC(=O)CNC(=O)[C@H](CO)NC(=O)[C@@H]1CCCN1c1ccc([N+](=O)[O-])cc1[N+](=O)[O-])C(=O)N[C@@H](Cc1c[nH]cn1)C(=O)N[C@@H](CC(C)C)C(N)=O
B6: Dnp-GPMSYNG-NH2 (peptide)
peptide: Dnp-GPMSYNG-NH2
SMILES: CSCC[C@H](NC(=O)[C@@H]1CCCN1C(=O)CNc1ccc([N+](=O)[O-])cc1[N+](=O)[O-])C(=O)N[C@@H](CO)C(=O)N[C@@H](Cc1ccc(O)cc1)C(=O)N[C@@H](CC(N)=O)C(=O)NCC(N)=O
B7: Dnp-GPRPFRG-NH2 (peptide)
peptide: Dnp-GPRPFRG-NH2
SMILES: N=C(N)NCCC[C@H](NC(=O)[C@H](Cc1ccccc1)NC(=O)[C@@H]1CCCN1C(=O)[C@H](CCCNC(=N)N)NC(=O)[C@@H]1CCCN1C(=O)CNc1ccc([N+](=O)[O-])cc1[N+](=O)[O-])C(=O)NCC(N)=O
B8: Dnp-GPLGMRG-NH2 (peptide)
peptide: Dnp-GPLGMRG-NH2
SMILES: CSCC[C@H](NC(=O)CNC(=O)[C@H](CC(C)C)NC(=O)[C@@H]1CCCN1C(=O)CNc1ccc([N+](=O)[O-])cc1[N+](=O)[O-])C(=O)N[C@@H](CCCNC(=N)N)C(=O)NCC(N)=O
B9: Dnp-PLGMRG-NH2 (peptide)
peptide: Dnp-PLGMRG-NH2
SMILES: CSCC[C@H](NC(=O)CNC(=O)[C@H](CC(C)C)NC(=O)[C@@H]1CCCN1c1ccc([N+](=O)[O-])cc1[N+](=O)[O-])C(=O)N[C@@H](CCCNC(=N)N)C(=O)NCC(N)=O
B10: Dnp-GPLQMRG-NH2 (peptide)
peptide: Dnp-GPLQMRG-NH2
SMILES: CSCC[C@H](NC(=O)[C@H](CCC(N)=O)NC(=O)[C@H](CC(C)C)NC(=O)[C@@H]1CCCN1C(=O)CNc1ccc([N+](=O)[O-])cc1[N+](=O)[O-])C(=O)N[C@@H](CCCNC(=N)N)C(=O)NCC(N)=O
B11: Dnp-…(Me)-NH2 (peptide)
peptide: Dnp-GPVNLHGR[C(Me)]-NH2
SMILES: CSC[C@H](NC(=O)[C@H](CCCNC(=N)N)NC(=O)CNC(=O)[C@H](Cc1c[nH]cn1)NC(=O)[C@H](CC(C)C)NC(=O)[C@H](CC(N)=O)NC(=O)[C@@H](NC(=O)[C@@H]1CCCN1C(=O)CNc1ccc([N+](=O)[O-])cc1[N+](=O)[O-])C(C)C)C(N)=O
B12: Dnp-GPINLHG-NH2 (peptide)
peptide: Dnp-GPINLHG-NH2
SMILES: CC[C@H](C)[C@H](NC(=O)[C@@H]1CCCN1C(=O)CNc1ccc([N+](=O)[O-])cc1[N+](=O)[O-])C(=O)N[C@@H](CC(N)=O)C(=O)N[C@@H](CC(C)C)C(=O)N[C@@H](Cc1c[nH]cn1)C(=O)NCC(N)=O
B13: Dnp-PINLHG-NH2 (peptide)
peptide: Dnp-PINLHG-NH2
SMILES: CC[C@H](C)[C@H](NC(=O)[C@@H]1CCCN1c1ccc([N+](=O)[O-])cc1[N+](=O)[O-])C(=O)N[C@@H](CC(N)=O)C(=O)N[C@@H](CC(C)C)C(=O)N[C@@H](Cc1c[nH]cn1)C(=O)NCC(N)=O
B14: Dnp-GPLSISG-NH2 (peptide)
peptide: Dnp-GPLSISG-NH2
SMILES: CC[C@H](C)[C@H](NC(=O)[C@H](CO)NC(=O)[C@H](CC(C)C)NC(=O)[C@@H]1CCCN1C(=O)CNc1ccc([N+](=O)[O-])cc1[N+](=O)[O-])C(=O)N[C@@H](CO)C(=O)NCC(N)=O

Key:
Experiment in all cases: cell-based or functional assay
human Gelatinase-A = biological target: T1, human Gelatinase-A (human, UniProt P08253 110-660, limits assumed)
T1 sequence (looked up): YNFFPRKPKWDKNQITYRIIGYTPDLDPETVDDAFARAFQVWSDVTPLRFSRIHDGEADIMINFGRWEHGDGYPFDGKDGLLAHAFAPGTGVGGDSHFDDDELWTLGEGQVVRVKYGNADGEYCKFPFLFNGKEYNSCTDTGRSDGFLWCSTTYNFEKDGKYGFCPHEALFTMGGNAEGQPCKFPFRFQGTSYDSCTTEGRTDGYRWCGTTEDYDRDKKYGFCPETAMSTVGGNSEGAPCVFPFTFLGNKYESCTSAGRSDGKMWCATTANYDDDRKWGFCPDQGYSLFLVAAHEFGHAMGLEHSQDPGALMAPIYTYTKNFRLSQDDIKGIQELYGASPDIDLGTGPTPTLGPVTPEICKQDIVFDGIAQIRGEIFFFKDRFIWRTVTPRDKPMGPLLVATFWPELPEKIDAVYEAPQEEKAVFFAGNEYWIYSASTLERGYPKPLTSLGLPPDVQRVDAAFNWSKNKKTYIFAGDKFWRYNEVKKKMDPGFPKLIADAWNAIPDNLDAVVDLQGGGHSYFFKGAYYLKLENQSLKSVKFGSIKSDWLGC

stromelysin 1 = stromelysin 1 (UniProt P08254 100-477, limits assumed)
collagenase 1 = biological target: T2, collagenase 1 (UniProt P03956 100-469, limits assumed)
T2 sequence (looked up): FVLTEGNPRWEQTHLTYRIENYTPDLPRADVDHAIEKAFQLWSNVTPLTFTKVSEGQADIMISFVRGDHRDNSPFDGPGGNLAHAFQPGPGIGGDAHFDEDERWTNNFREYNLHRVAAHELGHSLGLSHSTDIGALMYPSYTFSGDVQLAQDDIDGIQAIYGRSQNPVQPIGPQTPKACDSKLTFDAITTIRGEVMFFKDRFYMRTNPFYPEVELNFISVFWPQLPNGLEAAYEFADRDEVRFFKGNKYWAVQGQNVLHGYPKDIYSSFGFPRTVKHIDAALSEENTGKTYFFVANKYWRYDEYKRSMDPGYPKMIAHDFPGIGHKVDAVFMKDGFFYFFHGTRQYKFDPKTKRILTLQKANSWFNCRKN

gelatinase B = gelatinase B (UniProt P14780 107-707, limits assumed)
Sequence of gelatinase B (P14780 107-707 limits assumed): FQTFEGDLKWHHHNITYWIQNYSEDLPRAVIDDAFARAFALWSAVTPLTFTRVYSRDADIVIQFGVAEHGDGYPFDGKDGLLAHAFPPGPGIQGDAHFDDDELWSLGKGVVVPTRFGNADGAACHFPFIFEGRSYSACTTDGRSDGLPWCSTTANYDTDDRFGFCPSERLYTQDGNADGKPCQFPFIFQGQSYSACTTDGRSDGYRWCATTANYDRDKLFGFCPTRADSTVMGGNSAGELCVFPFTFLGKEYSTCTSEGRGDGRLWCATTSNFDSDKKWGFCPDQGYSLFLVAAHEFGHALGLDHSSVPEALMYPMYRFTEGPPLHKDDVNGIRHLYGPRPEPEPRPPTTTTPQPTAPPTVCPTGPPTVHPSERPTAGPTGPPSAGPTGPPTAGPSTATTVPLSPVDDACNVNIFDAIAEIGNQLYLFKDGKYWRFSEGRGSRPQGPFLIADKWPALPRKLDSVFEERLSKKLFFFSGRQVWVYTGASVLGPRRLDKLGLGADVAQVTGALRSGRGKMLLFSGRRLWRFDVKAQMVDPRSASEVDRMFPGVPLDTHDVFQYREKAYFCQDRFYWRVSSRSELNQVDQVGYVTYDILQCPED

Sequence of stromelysin 1 (P08254 100-477 limits assumed): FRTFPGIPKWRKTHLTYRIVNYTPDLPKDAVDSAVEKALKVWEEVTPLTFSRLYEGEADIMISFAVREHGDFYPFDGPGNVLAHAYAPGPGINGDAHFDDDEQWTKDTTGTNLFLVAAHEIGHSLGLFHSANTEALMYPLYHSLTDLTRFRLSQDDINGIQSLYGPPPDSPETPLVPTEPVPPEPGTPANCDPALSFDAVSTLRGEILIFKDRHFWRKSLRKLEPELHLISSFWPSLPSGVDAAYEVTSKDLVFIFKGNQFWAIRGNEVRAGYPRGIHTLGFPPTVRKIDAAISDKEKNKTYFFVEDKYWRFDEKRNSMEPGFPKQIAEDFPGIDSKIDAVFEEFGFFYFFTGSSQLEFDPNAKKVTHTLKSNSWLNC

Binder | Selectivity v. Coll-3 (human Gelatinase-A) [unitless] | Selectivity v. Coll-3 (stromelysin 1) [unitless] | Selectivity v. Coll-3 (collagenase 1) [unitless] | Selectivity v. Coll-3 (gelatinase B) [unitless] | other results
B1 | 9 | 468 | 452 | 4 | 
B2 | 15 | 770 | 1390 | 3 | 
B3 | 26 | 1380 | 408 | 3 | 
B4 | 12 | 287 | 526 | 4 | 
B5 | 2 |  | 1320 | 2 | 
B6 | 5 |  | 201 | 3 | 
B7 | 9 |  | 4200 | 4 | 
B8 |  |  |  |  | Selectivity v. Coll-3, + 1:1 Gelatin (human Gelatinase-A): 41 unitless; Selectivity v. Coll-3, + 1:4 Gelatin (human Gelatinase-A): 46 unitless; Selectivity v. Coll-3, + 1:16 Gelatin (human Gelatinase-A): 84 unitless; Selectivity v. Coll-3, + 1:64 Gelatin (human Gelatinase-A): 69 unitless; Selectivity v. Coll-3, + 1:256 Gelatin (human Gelatinase-A): 73 unitless; Selectivity v. Coll-3, + H2O (human Gelatinase-A): 6 unitless; Selectivity v. Coll-3, + 1:1 Gelatin (collagenase 1): 91 unitless; Selectivity v. Coll-3, + 1:4 Gelatin (collagenase 1): 96 unitless; Selectivity v. Coll-3, + 1:16 Gelatin (collagenase 1): 215 unitless; Selectivity v. Coll-3, + 1:64 Gelatin (collagenase 1): 236 unitless; Selectivity v. Coll-3, + 1:256 Gelatin (collagenase 1): 378 unitless; Selectivity v. Coll-3, + H2O (collagenase 1): 245 unitless; Selectivity v. Coll-3, + 1:1 Gelatin (gelatinase B): 5 unitless; Selectivity v. Coll-3, + 1:4 Gelatin (gelatinase B): 5 unitless; Selectivity v. Coll-3, + 1:16 Gelatin (gelatinase B): 13 unitless; Selectivity v. Coll-3, + 1:64 Gelatin (gelatinase B): 13 unitless; Selectivity v. Coll-3, + 1:256 Gelatin (gelatinase B): 18 unitless; Selectivity v. Coll-3, + H2O (gelatinase B): 2 unitless
B9 | 2 |  | 73 | 1 | 
B10 | 15 | 311 | 290 | 1 | 
B11 | 9 | 510 | 2120 | 2 | 
B12 | 28 | 1110 | 180 | 15 | 
B13 | 9 | 824 | 101 | 4 | 
B14 | 7 |  | 11 | 1 | 
